Data on 4 molecules can be found in paper PMC8812556 (Proceedings of the National Academy of Sciences of the …, 2022).

As usually defined, the Kd is the concentration at which binding is half-saturated.

Series [1] addresses FITC-labeled BiP-NBD (D27C variant) (UniProt P20029). As to the kind of experiment: fluorescence polarisation.
Series [2] concerns the target BiP double-mutant G518C and Y636C labelled with AlexaFluor 555 and AlexaFluor 647 (UniProt P20029). As to the kind of experiment: other fluorescence titration.
The series “cross-linking” concerns the molecule itself. Briefly: cross-linking.

“Wild-type mouse Grp94 (72 to 765) (from UniProt P08113 72-765) (natural protein)” registered an equilibrium dissociation constant (Kd) in series [1] of 950 nM.

As to “Mouse E-peptide containing an N-terminal six-histidine tag and S95C mutation (domain or fragment)”, the Kd in series [2] is 130 nM.

Consider “M86C cross-linked Grp94 (from UniProt P08113 72-765) (natural protein)”, for which the fold affinity enhancement versus wild-type Grp94 in series [1] is 50 fold.

B1: Grp94 M86C (natural protein, mouse, UniProt P08113 72-765, looked up)
chain: KSEKFAFQAEVNRMCKLIINSLYKNKEIFLRELISNASDALDKIRLISLTDENALAGNEELTVKIKCDKEKNLLHVTDTGVGMTREELVKNLGTIAKSGTSEFLNKMTEAQEDGQSTSELIGQFGVGFYSAFLVADKVIVTSKHNNDTQHIWESDSNEFSVIADPRGNTLGRGTTITLVLKEEASDYLELDTIKNLVRKYSQFINFPIYVWSSKTETVEEPLEEDEAAKEEKEESDDEAAVEEEEEEKKPKTKKVEKTVWDWELMNDIKPIWQRPSKEVEEDEYKAFYKSFSKESDDPMAYIHFTAEGEVTFKSILFVPTSAPRGLFDEYGSKKSDYIKLYVRRVFITDDFHDMMPKYLNFVKGVVDSDDLPLNVSRETLQQHKLLKVIRKKLVRKTLDMIKKIADEKYNDTFWKEFGTNIKLGVIEDHSNRTRLAKLLRFQSSHHSTDITSLDQYVERMKEKQDKIYFMAGSSRKEAESSPFVERLLKKGYEVIYLTEPVDEYCIQALPEFDGKRFQNVAKEGVKFDESEKTKESREATEKEFEPLLNWMKDKALKDKIEKAVVSQRLTESPCALVASQYGWSGNMERIMKAQAYQTGKDISTNYYASQKKTFEINPRHPLIRDMLRRIKEDEDDKTVMDLAVVLFETATLRSGYLLPDTKAYGDRIERMLRLSLNIDPEAQVEEEPEEEPED
For B1, in “cross-linking”, the binding result is on record as “binds”.
